Source: PMC10960864, “Bidirectional ATP-driven transport of cobalamin by the mycobacterial ABC transporter BacA” (Nature Communications, 2024)

Test system: Nc1ncnc2c1ncn2[C@@H]1O[C@H](COP(=O)(O)OP(=O)(O)OP(=O)(O)O)[C@@H](O)[C@H]1O
Test: purified protein
Details: import direction, Mg-ATP varied, 65 µM cyanocobalamin, pH 7.5, 30 °C, 1 mM DTT

## BacAMm (Mycobacterium marinum M)
  Km: 250 µM
